Patent US20200247894A1 (Regeneron, published 2020)

T1: Human IL2Rγ extracellular domain expressed with a C-terminal myc-myc-hexahistidine tag (human)
T1 construct: also called hIL-2Rg-MMH; hIL-2RG-MMH
T1 chain: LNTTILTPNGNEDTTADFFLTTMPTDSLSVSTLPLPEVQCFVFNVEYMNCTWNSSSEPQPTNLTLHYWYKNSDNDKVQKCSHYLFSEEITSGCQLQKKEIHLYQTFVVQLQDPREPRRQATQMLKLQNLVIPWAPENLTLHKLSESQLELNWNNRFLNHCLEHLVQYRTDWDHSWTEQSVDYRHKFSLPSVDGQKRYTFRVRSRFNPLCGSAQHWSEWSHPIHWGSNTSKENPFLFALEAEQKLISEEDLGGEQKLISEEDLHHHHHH

T2: Macaca fascicularis IL2Rγ extracellular domain expressed with a C-terminal myc-myc-hexahistidine tag (Macaca fascicularis)
T2 construct: also called mfIL-2Rg-MMH; mfIL-2RG-MMH
T2 chain: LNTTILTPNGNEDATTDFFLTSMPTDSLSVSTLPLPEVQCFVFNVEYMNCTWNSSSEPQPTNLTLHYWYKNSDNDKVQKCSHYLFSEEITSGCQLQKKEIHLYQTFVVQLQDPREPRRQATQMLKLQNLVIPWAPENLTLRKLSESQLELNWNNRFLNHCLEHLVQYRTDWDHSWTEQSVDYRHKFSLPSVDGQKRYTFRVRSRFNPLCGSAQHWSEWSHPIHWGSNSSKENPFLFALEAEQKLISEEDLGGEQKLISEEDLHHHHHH


How the values were obtained:
[1] = molecular target: T1, Human IL2Rγ extracellular domain …; test: SPR, captured mAb, 37C, dissociation pH 7.4
Method: (§1) The dissociation rate constant (kd) for binding of IL-2Rγ reagents to purified anti-IL2Rγ monoclonal antibodies was determined using a real-time surface plasmon resonance based Biacore 4000 biosensor platform. […] The CM5 Biacore sensor surface derivatized by amine coupling with monoclonal mouse anti-human Fc antibody (GE, Catalog # BR-1008-39) was used to capture anti-IL2Rγ monoclonal antibodies expressed with human IgG4 Fc. All the IL2Rγ reagents were expressed with a C-terminal myc-myc-hexahistidine tag (subsequently referred to with a -MMH suffix). […] The dissociation of bound IL-2Rg-MMH was performed in PBS-T-pH7.4 or PBS-T-pH6.0 running buffers for 6 minutes.
(§2) Dissociation rate constants (kd) in two running buffers were determined by fitting the real-time binding sensorgrams to a 1:1 binding model using Scrubber 2.0c curve-fitting software. Values of dissociation rate for […] mAb binding to hIL-2RG-MMH and mfIL-2RG-MMH at 25° C. and 37° C. in PBS-T-pH7.4 and PBS-T-pH6.0 is shown in Table 2-1 through Table 2-8.

[2] = molecular target: T1, Human IL2Rγ extracellular domain …; test: SPR, captured mAb, 25C, dissociation pH 6.0
Method: as §1, §2

[3] = molecular target: T2, Macaca fascicularis IL2Rγ extracellular …; test: SPR, captured mAb, 25C, dissociation pH 6.0
Method: as §1, §2

[4] = molecular target: T1, Human IL2Rγ extracellular domain …; test: SPR, captured mAb, 37C, dissociation pH 6.0
Method: as §1, §2

[5] = molecular target: T1, Human IL2Rγ extracellular domain …; test: SPR, captured mAb, 25C, dissociation pH 7.4
Method: as §1, §2

[6] = molecular target: T2, Macaca fascicularis IL2Rγ extracellular …; test: SPR, captured mAb, 25C, dissociation pH 7.4
Method: as §1, §2

| Binder | 100 nM Ag Bound (RU) [1] [RU] | koff [1] [s⁻¹] | t1/2 [1] [min] | 100 nM Ag Bound (RU) [2] [RU] | koff [2] [s⁻¹] | t1/2 [2] [min] | 100 nM Ag Bound (RU) [3] [RU] | koff [3] [s⁻¹] | t1/2 [3] [min] | 100 nM Ag Bound (RU) [4] [RU] | koff [4] [s⁻¹] | t1/2 [4] [min] | 100 nM Ag Bound (RU) [5] [RU] | koff [5] [s⁻¹] | t1/2 [5] [min] | 100 nM Ag Bound (RU) [6] [RU] | koff [6] [s⁻¹] | t1/2 [6] [min] |
| --- | --- | --- | --- | --- | --- | --- | --- | --- | --- | --- | --- | --- | --- | --- | --- | --- | --- | --- |
| H4H12884P (antibody, human IgG4 S228P, kappa, V domains shown, anti-IL2Rgamma mAb expressed with human IgG4 Fc) VH: QVQLQESGPGLVKPSQTLSLTCTVSGGSISSGGYYWSWIRQHPGKGLEWIGFIYYSGKTYYNPSLKSRLTISVDTSKSQFSLKLRSVTAADTAVYYCARLGYTNSAGWFDPWGQGTLVTVSS VL: DIQMTQSPSSLSASVGDRVTITCRASQSISSYLNWYQQKPGKAPNLLIYAASSLQSGVPSRFSGSGSGTDFTLTISSLQPEDLATYYCQQSYTTPFTFGPGTKVDIKR | 171 | 0.00151 | 8 | 135 | 0.00199 | 6 | 133 | 0.00159 | 7 | 136 | 0.00379 | 3 | 161 | 0.00064 | 18 | 160 | 0.000516 | 22 |
| H4H12890P (antibody, human IgG4 S228P, kappa, V domains shown, anti-IL2Rgamma mAb expressed with human IgG4 Fc) VH: EVQLVESGGGLVQPGGSLRLSCAASGFTFNNYAMHWVRQAPGKGLEYVSSISSSGGSTYYEDSVKGRFTISRDNSKNTLYLQMGSLRAEDMAVYYCARSFYGSGTYYDTFDMWGQGTMVTVSS VL: DIQMTQSPSSLSASIGDRVTITCRASQSISRYLNWYQQKPGKAPKLLIYAASSLQSGVPSRFSASGSGTDFTLTISSLQPEDFATYYCQQSYSTPFTFGQGTKLEIKR | 90 | 0.000661 | 17 | 64 | 0.000636 | 18 | 60 | 0.000668 | 17 | 82 | 0.00286 | 4 | 72 | 0.000192 | 60 | 71 | 0.000203 | 57 |
| H4H12886P (antibody, human IgG4 S228P, kappa, V domains shown, anti-IL2Rgamma mAb expressed with human IgG4 Fc) VH: EVQLVESGGGLVKPGGSLRLSCAASGFTFSTAWMSWVRQSPGRGLEWVGRMKSKTDGGTTFYAAPVKGRFTISRDDSKNTLYLQMNSLKTEDTAVYYCTTGLVPAFYKYYGVDVWGQGTTVTVSS VL: DIQMTQSPSSLSASVGDRITITCQASQDITNYLNWYQQKPGKAPNLLIYDASNLVTGVPSRFSGSGSGTDFTFTILSLQPEDIATYYCQQYDSLLTFGPGTKVDIKR | 146 | 0.000519 | 22 | 84 | 0.000634 | 18 | 83 | 0.000682 | 17 | 115 | 0.00216 | 5 | 113 | 0.000155 | 75 | 113 | 0.000175 | 66 |
| H4H12889P (antibody, human IgG4 S228P, kappa, V domains shown, anti-IL2Rgamma mAb expressed with human IgG4 Fc; also called REGN7257) VH: EVQLVESGGGLVQPGGSLRLSCAASGFIFSSYEMHWVRQAPGKGLEWISYISSSGTTIYYADSVKGRFTISRDNAKNSLYLHMNSLRAEDTAVYYCTRARITGTFDVFDIWGQGTMVTVSS VL: DIQMTQSPSSLSASVGDRVTITCRASQSISSYLNWYQQKPGKAPKLLIFAASNLQSGVPSRFSGSRSGTDFTLTISSLQPEDFATYYCQQNYNIPYTFGQGTKLEIKR | 147 | 0.000636 | 18 | 130 | 0.000437 | 26 | 126 | 0.000434 | 27 | 153 | 0.00188 | 6 | 118 | 0.000138 | 84 | 123 | 0.000157 | 74 |
| H4H12899P (antibody, human IgG4 S228P, kappa, V domains shown, anti-IL2Rgamma mAb expressed with human IgG4 Fc) VH: QVQLVESGGDLVKPGGSLRLSCATSGFTFSDFYMTWIRQAPGKGLEWISYISNSGSIVKYADSVKGRFTISRDNAKNSLYLQMNSLRAEDTAIYYCARFYGDRWGQGTLVTVSS VL: DIQLTQSPSFLSASVGDRVTITCWASQGISTFLAWYQQKPGKAPKLLIYAASTLQSGVPSRFSGSGSGTDFTLTISSLQPEDFATYHCQQLNNYPWTFGQGTKVEIKR | 158 | 0.000668 | 17 | 96 | 0.000568 | 20 | 95 | 0.000703 | 16 | 125 | 0.00219 | 5 | 118 | 0.000174 | 66 | 117 | 0.000167 | 69 |
| H4H13541P (antibody, human IgG4 S228P, kappa, V domains shown, anti-IL2Rgamma mAb expressed with human IgG4 Fc) VH: EVQLVESGGGVVRPGGSLRLSCAASGFIFDDYDMSWVRQPPGRGLEWVSGIDWFGGTRGYADSMKGRFTISRDNAKNSLYLQMNSLRVEDTAFYYCARGGAIVGAVTPFDYWGQGTLVTVSS VL: DIQMTQSPSSLSASVGNRVTLSCRASQSINTYLSWYQQRPGKAPKLLIYAASSLQSGVPSRFSGSGAGTDFTLTISSLQPEDFATYYCQQSYSAPLTFGGGTKVEIKR | 98 | 0.000532 | 22 | 66 | 0.000469 | 25 | 69 | 0.000497 | 23 | 95 | 0.00158 | 7 | 72 | 0.000165 | 70 | 80 | 0.000222 | 52 |

Further lines, results first:

| 100 nM Ag Bound (RU) [1] [RU] | koff [1] [s⁻¹] | t1/2 [1] [min] | 100 nM Ag Bound (RU) [2] [RU] | koff [2] [s⁻¹] | t1/2 [2] [min] | 100 nM Ag Bound (RU) [3] [RU] | koff [3] [s⁻¹] | t1/2 [3] [min] | 100 nM Ag Bound (RU) [4] [RU] | koff [4] [s⁻¹] | t1/2 [4] [min] | 100 nM Ag Bound (RU) [5] [RU] | koff [5] [s⁻¹] | t1/2 [5] [min] | 100 nM Ag Bound (RU) [6] [RU] | koff [6] [s⁻¹] | t1/2 [6] [min] | Binder |
| --- | --- | --- | --- | --- | --- | --- | --- | --- | --- | --- | --- | --- | --- | --- | --- | --- | --- | --- |
| 99 | 0.000572 | 20 | 66 | 0.000724 | 16 | 64 | 0.000729 | 16 | 91 | 0.00261 | 4 | 72 | 0.000162 | 71 | 73 | 0.000164 | 70 | H4H12874P (antibody, human IgG4 S228P, kappa, V domains shown, anti-IL2Rgamma mAb expressed with human IgG4 Fc) VH: QVQLVESGGGVVQPGRSLRLSCAASGFNFRNFGMHWVRQAPGKGLEWVAGILYDGSSKYYADSVKDRFTISRDNSKNTLFLQMNSLRAEDTAMYYCAKEEDTAMVPFDSWGPGTLVTVSS VL: DIQLTQSPSFLSASVGDRVTITCWASQGISSYLAWYQQKPGKAPTLLIYAASTLQSGVPSRFSGSGSGTEFTLTISSLQPEDFASYYCQQLKSYPLTFGGGTKVEIKR |
| 162 | 0.000711 | 16 | 101 | 0.000692 | 17 | 100 | 0.000671 | 17 | 133 | 0.00271 | 4 | 130 | 0.000175 | 66 | 129 | 0.000175 | 66 | H4H12900P (antibody, human IgG4 S228P, kappa, V domains shown, anti-IL2Rgamma mAb expressed with human IgG4 Fc) VH: QVQLVESGGGLVKPGGSLRLSCEASGFTFNDFYMTWIRQAPGKGLEWIAYISKSGDKMRYADSVKGRFSTSRDNAKNSLSLQMNSLRAEDTAVYYCARFYGDIWGQGTLVTVSS VL: DIQLTQSPSFLSASVGDRVTITCWASQDISSFLVWYQQKPGKAPNLLIYAASALQSGVPSRFSGSGSGTEFTLTISSLQPEDFASYYCEQLNNYPWTFGQGTKVEIKR |
